Measurements published in patent US20260265379A1 (IMCHECK THERAPEUTICS, published 2026).

B1: bsAb021 (bispecific antibody)
heavy: QVQLVQSGAEVKKPGASVKLSCKASGYIFTRYYMYWVKQRPGQGLEWIGEINPNNGGTKFNEKFKNRATLTVDKSISTAYMELSRLRSDDTAVYYCSREDDYDGTPFAMDYWGQGTLVTVSSGGGGSGGGGSGGGGSGGGGSDIQMTQSPSSLSASVGDRVTITCHASQNINVWLSWYQQKPGKAPKLLIYKASNLHTGVPSRFTGSGSGTDFTFTISSLQPEDIATYYCQQGQTYPYTFGQGTKLEIKGGGGSGGGGSGGGGSGGGGSQVQLVQSGVEVKKPGASVKVSCKASGYTFTNYYMYWVRQAPGQGLEWMGGINPSNGGTNFNEKFKNRVTLTTDSSTTTAYMELKSLQFDDTAVYYCARRDYRFDMGFDYWGQGTTVTVSSASTKGPSVFPLAPSSKSTSGGTAALGCLVKDYFPEPVTVSWNSGALTSGVHTFPAVLQSSGLYSLSSVVTVPSSSLGTQTYICNVNHKPSNTKVDKRVEPKSCDKTHTCPPCPAPEFEGGPSVFLFPPKPKDTLMISRTPEVTCVVVDVSHEDPEVKFNWYVDGVEVHNAKTKPREEQYNSTYRVVSVLTVLHQDWLNGKEYKCKVSNKALPASIEKTISKAKGQPREPQVYTLPPSREEMTKNQVSLTCLVKGFYPSDIAVEWESNGQPENNYKTTPPVLDSDGSFFLYSKLTVDKSRWQQGNVFSCSVMHEALHNHYTQKSLSLSPG
light: EIVLTQSPATLSLSPGERATLSCRASKGVSTSGYSYLHWYQQKPGQAPRLLIYLASYLESGVPARFSGSGSGTDFTLTISSLEPEDFAVYYCQHSRDLPLTFGGGTKVEIKRTVAAPSVFIFPPSDEQLKSGTASVVCLLNNFYPREAKVQWKVDNALQSGNSQESVTEQDSKDSTYSLSSTLTLSKADYEKHKVYACEVTHQGLSSPVTKSFNRGEC
notes: IgG anti-PD-1, scFv anti-BTN3A
B2: bsAb034 (bispecific antibody)
heavy (part 1 of 2): QVQLVQSGVEVKKPGASVKVSCKASGYTFTNYYMYWVRQAPGQGLEWMGGINPSNGGTNFNEKFKNRVTLTTDSSTTTAYMELKSLQFDDTAVYYCARRDYRFDMGFDYWGQGTTVTVSS
heavy (part 2 of 2): GGGGSGGGGSGGGGSGGGGSQVQLVQSGAEVKKPGASVKLSCKASGYIFTRYYMYWVKQRPGQGLEWIGEINPNNGGTKFNEKFKNRATLTVDKSISTAYMELSRLRSDDTAVYYCSREDDYDGTPFAMDYWGQGTLVTVSSGGGGSGGGGSGGGGSGGGGSDIQMTQSPSSLSASVGDRVTITCHASQNINVWLSWYQQKPGKAPKLLIYKASNLHTGVPSRFTGSGSGTDFTFTISSLQPEDIATYYCQQGQTYPYTFGQGTKLEIK
heavy: GGGGSGGGGSGGGGSGGGGSQVQLVQSGAEVKKPGASVKLSCKASGYIFTRYYMYWVKQRPGQGLEWIGEINPNNGGTKFNEKFKNRATLTVDKSISTAYMELSRLRSDDTAVYYCSREDDYDGTPFAMDYWGQGTLVTVSSGGGGSGGGGSGGGGSGGGGSDIQMTQSPSSLSASVGDRVTITCHASQNINVWLSWYQQKPGKAPKLLIYKASNLHTGVPSRFTGSGSGTDFTFTISSLQPEDIATYYCQQGQTYPYTFGQGTKLEIK
light: EIVLTQSPATLSLSPGERATLSCRASKGVSTSGYSYLHWYQQKPGQAPRLLIYLASYLESGVPARFSGSGSGTDFTLTISSLEPEDFAVYYCQHSRDLPLTFGGGTKVEIKRTVAAPSVFIFPPSDEQLKSGTASVVCLLNNFYPREAKVQWKVDNALQSGNSQESVTEQDSKDSTYSLSSTLTLSKADYEKHKVYACEVTHQGLSSPVTKSFNRGEC
notes: one Fab arm anti-PD-1, two scFv anti-BTN3A; not shown: IgG1 CH1-hinge-CH2-CH3; CH2-CH3 (Fc)
B3: bsAb003 (bispecific antibody, human IgG1, kappa)
heavy: QVQLVQSGAEVKKPGASVKLSCKASGYIFTRYYMYWVKQRPGQGLEWIGEINPNNGGTKFNEKFKNRATLTVDKSISTAYMELSRLRSDDTAVYYCSREDDYDGTPFAMDYWGQGTLVTVSSASTKGPSVFPLAPSSKSTSGGTAALGCLVKDYFPEPVTVSWNSGALTSGVHTFPAVLQSSGLYSLSSVVTVPSSSLGTQTYICNVNHKPSNTKVDKRVEPKSCDKTHTCPPCPAPEFEGGPSVFLFPPKPKDTLMISRTPEVTCVVVDVSHEDPEVKFNWYVDGVEVHNAKTKPREEQYNSTYRVVSVLTVLHQDWLNGKEYKCKVSNKALPASIEKTISKAKGQPREPQVYTLPPSREEMTKNQVSLTCLVKGFYPSDIAVEWESNGQPENNYKTTPPVLDSDGSFFLYSKLTVDKSRWQQGNVFSCSVMHEALHNHYTQKSLSLSPGGGGGSGGGGSGGGGSGGGGSEVQLVESGGGLVQPGGSLRLSCAASGFTFSRYWMSWVRQAPGKGLEWVANIKQDGSEKYYVDSVKGRFTISRDNAKNSLYLQMNSLRAEDTAVYYCAREGGWFGELAFDYWGQGTLVTVSSGGGGSGGGGSGGGGSGGGGSEIVLTQSPGTLSLSPGERATLSCRASQRVSSSYLAWYQQKPGQAPRLLIYDASSRATGIPDRFSGSGSGTDFTLTISRLEPEDFAVYYCQQYGSLPWTFGQGTKVEIK
light: not shown
notes: IgG anti-BTN3A, scFv anti-PD-L1 (VH-VL) at heavy chain C-terminus
B4: bsAb048 (bispecific antibody)
heavy 1: EIVLTQSPGTLSLSPGERATLSCRASQRVSSSYLAWYQQKPGQAPRLLIYDASSRATGIPDRFSGSGSGTDFTLTISRLEPEDFAVYYCQQYGSLPWTFGQGTKVEIKGGGGSGGGGSGGGGSGGGGSEVQLVESGGGLVQPGGSLRLSCAASGFTFSRYWMSWVRQAPGKGLEWVANIKQDGSEKYYVDSVKGRFTISRDNAKNSLYLQMNSLRAEDTAVYYCAREGGWFGELAFDYWGQGTLVTVSSGGGGSGGGGSGGGGSGGGGSQVQLVQSGAEVKKPGASVKLSCKASGYIFTRYYMYWVKQRPGQGLEWIGEINPNNGGTKFNEKFKNRATLTVDKSISTAYMELSRLRSDDTAVYYCSREDDYDGTPFAMDYWGQGTLVTVSS
heavy 2: QVQLVQSGAEVKKPGASVKLSCKASGYIFTRYYMYWVKQRPGQGLEWIGEINPNNGGTKFNEKFKNRATLTVDKSISTAYMELSRLRSDDTAVYYCSREDDYDGTPFAMDYWGQGTLVTVSS
light: not shown
notes: IgG anti-BTN3A, one scFv anti-PD-L1; not shown: IgG1 CH1-hinge-CH2-CH3
B5: bsAb050 (bispecific antibody)
heavy 1: EVQLVESGGGLVQPGGSLRLSCAASGFTFSRYWMSWVRQAPGKGLEWVANIKQDGSEKYYVDSVKGRFTISRDNAKNSLYLQMNSLRAEDTAVYYCAREGGWFGELAFDYWGQGTLVTVSSGGGGSGGGGSGGGGSGGGGSEIVLTQSPGTLSLSPGERATLSCRASQRVSSSYLAWYQQKPGQAPRLLIYDASSRATGIPDRFSGSGSGTDFTLTISRLEPEDFAVYYCQQYGSLPWTFGQGTKVEIKGGGGSGGGGSGGGGSGGGGSQVQLVQSGAEVKKPGASVKLSCKASGYIFTRYYMYWVKQRPGQGLEWIGEINPNNGGTKFNEKFKNRATLTVDKSISTAYMELSRLRSDDTAVYYCSREDDYDGTPFAMDYWGQGTLVTVSS
heavy 2: QVQLVQSGAEVKKPGASVKLSCKASGYIFTRYYMYWVKQRPGQGLEWIGEINPNNGGTKFNEKFKNRATLTVDKSISTAYMELSRLRSDDTAVYYCSREDDYDGTPFAMDYWGQGTLVTVSS
light: not shown
notes: as for B4

Experiments:
[1] = target: T1, BTN3A1 at the surface of HEK-BTN3A1 cells (human, UniProt O00481 30-513); test: flow cytometry, HEK-BTN3A1 cells
T1 construct: HEK 293T BTN2A/BTN3A KO cells transduced with a BTN3A1 expressing vector

[2] = target: T2, recombinant human BTN3A1 (human, UniProt O00481 30-254); test: SPR
T2 construct: Soluble form of the antigen used in SPR; also called rhBTN3A1; recombinant BTN3A1 protein
Method: (§1) SPR measures the interactions between two or more biomolecules. In capture kinetics analysis, an antibody is immobilized onto a gold-plated prism. The immobilized antibody is referred to as the ligand. An injection of antigen, referred to as the analyte, is carried out, often as a concentration series. The captured analytes are removed from the sensor chip surface using a regenerating agent, for example a low pH or high ionic strength solution. If investigating binding to several analytes, the antibodies are recaptured from solution before each analyte titration series. The instrument records the changes in refractive indexes (due to the accumulation or depletion of mass) in time and plots the results as sensorgrams.
(§2) Affinity measurements with respect to BTN3A, PD-1 and PD-L1 were performed by SPR technology, for instance in a Carterra LSA Platform instrument using a soluble form of the antigen as the analyte and the antibody as the ligand. Binding was also assessed through in cellulo binding assays, on cell lines (e.g. HEK293T cells) genetically modified to express the targets of interest or genetically modified to extinct target expression.
(§3) The 69 produced bsAbs and control mAbs were also evaluated for their binding affinity to recombinant proteins by SPR assays. The equilibrium dissociation constant (KD) was then calculated for constructs showing detectable binding.

[3] = target: T3, recombinant human PD-1 (human, UniProt Q15116 25-167, limits assumed); test: SPR
T3 construct: Soluble antigen in SPR; also called rhPD-1
Method: as §1, §2, §3

[4] = target: T4, PD-1 at the surface of Jurkat-PD-1 cells (human, UniProt Q15116 25-288); test: flow cytometry, Jurkat-PD-1 cells
T4 construct: whole, on cells

[5] = target: T5, PD-L1 at the surface of transduced cells (UniProt Q9NZQ7 19-290, limits assumed); test: flow cytometry, CHO-PD-L1 cells
T5 construct: whole, on cells; CHO-PD-L1 cells in flow cytometry, Raji-PD-L1 cells in the reporter assay; also called CHO-PD-L1; Raji-PD-L1

[6] = target: T5, PD-L1 at the surface of transduced cells; test: cell-based or functional assay

T2 sequence (O00481 30-254 limits assumed): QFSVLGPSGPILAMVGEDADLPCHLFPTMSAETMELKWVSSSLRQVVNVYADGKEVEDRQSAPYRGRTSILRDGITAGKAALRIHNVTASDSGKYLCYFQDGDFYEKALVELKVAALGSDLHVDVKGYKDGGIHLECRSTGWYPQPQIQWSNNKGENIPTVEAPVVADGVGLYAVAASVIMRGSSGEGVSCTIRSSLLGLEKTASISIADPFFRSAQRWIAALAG
T1 sequence (O00481 30-513 limits assumed): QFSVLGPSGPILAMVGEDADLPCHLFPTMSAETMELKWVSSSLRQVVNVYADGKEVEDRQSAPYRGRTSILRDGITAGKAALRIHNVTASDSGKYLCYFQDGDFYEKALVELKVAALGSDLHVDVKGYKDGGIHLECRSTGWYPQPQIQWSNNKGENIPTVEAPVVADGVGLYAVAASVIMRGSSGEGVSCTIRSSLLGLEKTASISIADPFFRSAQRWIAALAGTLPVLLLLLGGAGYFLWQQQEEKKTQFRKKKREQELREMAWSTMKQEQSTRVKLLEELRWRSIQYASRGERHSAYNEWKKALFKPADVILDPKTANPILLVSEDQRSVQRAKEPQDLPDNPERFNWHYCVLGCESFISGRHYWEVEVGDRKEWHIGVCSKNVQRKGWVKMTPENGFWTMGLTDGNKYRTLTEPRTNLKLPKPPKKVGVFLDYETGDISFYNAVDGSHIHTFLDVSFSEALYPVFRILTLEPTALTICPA
T4 sequence (Q15116 25-288): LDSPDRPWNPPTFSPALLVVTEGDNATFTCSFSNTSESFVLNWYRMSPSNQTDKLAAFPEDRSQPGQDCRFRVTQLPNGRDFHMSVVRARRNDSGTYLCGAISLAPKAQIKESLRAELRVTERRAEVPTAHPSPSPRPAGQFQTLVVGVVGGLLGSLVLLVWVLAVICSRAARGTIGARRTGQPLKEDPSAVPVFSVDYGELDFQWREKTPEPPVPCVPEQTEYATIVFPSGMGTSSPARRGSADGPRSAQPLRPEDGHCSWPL
T5 sequence (Q9NZQ7 19-290 limits assumed): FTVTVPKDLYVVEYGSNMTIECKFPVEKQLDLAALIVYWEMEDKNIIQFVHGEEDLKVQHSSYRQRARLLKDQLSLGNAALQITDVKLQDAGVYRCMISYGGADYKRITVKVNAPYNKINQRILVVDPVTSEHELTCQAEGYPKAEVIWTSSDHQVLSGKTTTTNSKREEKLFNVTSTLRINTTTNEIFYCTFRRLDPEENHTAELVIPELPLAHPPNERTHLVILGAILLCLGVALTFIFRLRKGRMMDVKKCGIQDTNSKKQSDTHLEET
T3 sequence (Q15116 25-167 limits assumed): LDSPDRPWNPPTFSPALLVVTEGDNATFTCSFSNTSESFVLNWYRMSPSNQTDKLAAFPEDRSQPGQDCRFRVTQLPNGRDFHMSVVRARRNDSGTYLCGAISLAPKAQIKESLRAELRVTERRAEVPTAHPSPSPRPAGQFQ

Row | Binder | MFI at 10 nM [1] [MFI] | MFI at 100 nM [1] [MFI] | Kd [2] [pM] | Kd [3] [pM] | MFI at 10 nM [4] [MFI] | MFI at 100 nM [4] [MFI] | MFI at 10 nM [5] [MFI] | Jurkat-PD-1 activation at 10 nM [6] | Jurkat-PD-1 activation at 100 nM [6] | MFI at 100 nM [5] [MFI]
1 | B1 | 816000 | 944000 | 68 | 1500 | 186000 | 275000 | – | – | – | –
2 | B2 | 706000 | 1.24e+06 | 167 | 1900 | 210000 | 381000 | – | – | – | –
3 | B3 | 500000 | 950000 | 73 | – | – | – | 722000 | 8.5 fold-change to medium | 6.9 fold-change to medium | –
4 | B4 | 592000 | 1.02e+06 | 80 | – | – | – | 1.18e+06 | 7.4 fold-change to medium | 8.9 fold-change to medium | 1.36e+06
5 | B5 | 535000 | 1.2e+06 | 80 | – | – | – | 1.18e+06 | 6.9 fold-change to medium | 7.8 fold-change to medium | 1.32e+06
